The nanobody polyreactivity screen of Harvey et al. (2022)

Assay: yeast display, Sf9 membrane polyspecificity reagent, FACS + sequencing; frameworks hold sequencing errors
How it was run: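 Sorting gates, low and high (top ~1%), were placed on anti-HA fluorescence to track expression and on streptavidin fluorescence to track reagent binding. A clone's polyreactivity label is taken from the gate it came out of. The reagent was 10% biotinylated, detergent-solubilized Sf9 membrane, applied for 1 hour at 4 °C to galactose-induced yeast display cells.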
For “QVQLVESGGGLVQAGGSLRLSCAASGIIFDWYTMGWYRQAPGKERELVAAISWRGGRTYYADSVKGRFTISRDNAKNTVYLQMNSLKPEDTAVYYCAAEAPVQPFYVFNTGIYELDYWGQGTQVTVSS”, the “polyreactivity (PSR sort gate)” value was “low polyreactivity”. With “QVQLVESGGGLVQAGGSLRLSCAASGIIFDYNAMGWYRQAPGKERELVAAISGRSGRTYYADSVKGRFTISRDNAKNTVYLQMNSLKPEDTAVYYCAARWYAGGNYWGQGTQVTVSS” the “polyreactivity (PSR sort gate)” value was “high polyreactivity”. With “QVQLVESGGGLVQAGGSLRLSCAASGIIFELYAMGWYRQAPGKERELVAAISISGDSTYYADSVTGRFTISRDTAKNTVYLQMKSLKPEDTAVYYCAKQSYRWPYLVTKYYEYDYWGQGTQVTVSS” the “polyreactivity (PSR sort gate)” value was “low polyreactivity”. With “QVQLVESGGGLVQAGGSLRLSCAASGIIFENYAMGWYRQAPGKERELVAAINKRGSRTYFADSVTGRFTISRDNAKNTVYLQMNSLKPEDTAVYYCNAVNPYYAPTDRRVGYDYWGQGTQVTVSS” the “polyreactivity (PSR sort gate)” value was “high polyreactivity”. With “QVQLVESGGGLVQAGGSLRLSCAASGIIFERYAMGWYRQAPGKERELVATISWSGGSTRYADSVKGRFTISRDNAKNTVYLQMNSLKPEDTAVYYCAAPSYFRMGYWGQGTQVTVSS” the “polyreactivity (PSR sort gate)” value was “low polyreactivity”. In the case of “QVQLVESGGGLVQAGGSLRLSCAASGIIFESYAMGSYRQAPGKEREFVAAISSRGGSTYYADSVKGRFTISRDNAKNTVYLQMNSLKPEDTAVYYCAARGYRRTFDYREYDSWGQGTQVTVSS”, the “polyreactivity (PSR sort gate)” value is reported as “low polyreactivity”. With “QVQLVESGGGLVQAGGSLRLSCAASGIIFESYAMGWYRPAPGKERELVAAISWDGGSTYYADSVKGRFTISRDNAKNTVYLQMNSQKPEDTAVYYCAAESYGIYDGYDYWGQGTQVTVSS” the “polyreactivity (PSR sort gate)” value was “high polyreactivity”. For “QVQLVESGGGLVQAGGSLRLSCAASGIIFEYYAMGWYIQAPGKERELVAAISSDTSTNYADSVKGRFTISRDNAKNTVYLQMNSLKPEDTAVYYCNADAYYDTYGIGVGTDYDYWGQGTQVTVSS”, the “polyreactivity (PSR sort gate)” value was “low polyreactivity”. In the case of “QVQLVESGGGLVQAGGSLRLSCAASGIIFEYYAMGWYRQAPGKERELVAAITWNGGRTYYADSVKGRFTISRDNAKNTVYLQMNSLKPEDTAVYYCAARKPRSGGPFDYWGQGTQVTVSS”, the “polyreactivity (PSR sort gate)” value is reported as “high polyreactivity”. For “QVQLVESGGGLVQAGGSLRLSCAASGIIFFHYAMGWYRQAPGKERELVAAITWSGGSTYYADSVKGRFTISRDNAKNTVYLKMNSLKPEDSAVYYCNAVLHRRLYDYWGQGPQVTVSS”, the “polyreactivity (PSR sort gate)” value was “high polyreactivity”. For “QVQLVESGGGLVQAGGSLRLSCAASGIIFFRYAMGWYRQAPGKERELVAAISLSGGRTYYADSVKGRFTISRDNANNTVYLQMNSVKPEDTAVYYCNTLHRYSSQRYDYWGQGTQVTVSS”, the “polyreactivity (PSR sort gate)” value was “high polyreactivity”. With “QVQLVESGGGLVQAGGSLRLSCAASGIIFFYNAMGWYRQAPGKERELVAAIRRGGRTNYADSVKGRFTISRDNAKNTVYLQMNSLKPEDTAVYYCNKDFYPGDYWGQGTQVTVSS” the “polyreactivity (PSR sort gate)” value was “low polyreactivity”. With “QVQLVESGGGLVQAGGSLRLSCAASGIIFFYNAMGWYRQAPGKERELVAAITIGGITYADSVKGRFTISRDNAKNTVYLQMNSLNPEDTAVYYCNKRTDSDSGHWEHDYWGQGTQVTVSS” the “polyreactivity (PSR sort gate)” value was “low polyreactivity”. In the case of “QVQLVESGGGLVQAGGSLRLSCAASGIIFFYYAMGWYRQAPGKERELVAANSSDGSTYYADSVKGRFTISRDNAKNTVYLQMNSLKPEDTAVYYCAVDHYSARLLARYDYWGQGTQVTVSS”, the “polyreactivity (PSR sort gate)” value is reported as “low polyreactivity”. For “QVQLVESGGGLVQAGGSLRLSCAASGIIFFYYAMGWYRQAPGKERELVASISSGGSTNYADSVKGRFTISRDNAKNTVYLQMNSLKPEDTALYYCAARRYYVRIQGYKLDYWGHGTQVTVSS”, the “polyreactivity (PSR sort gate)” value was “low polyreactivity”. For “QVQLVESGGGLVQAGGSLRLSCAASGIIFGDNAMGLYRQEPGKERELVATISSSASTNYADSVKGRFTISRDNAKNTVYLQMNSLKPEDTAVYYCAADVYSPPNYDYWGQGTQVTVSS”, the “polyreactivity (PSR sort gate)” value was “low polyreactivity”. For “QVQLVESGGGLVQAGGSLRLSCAASGIIFGFNTMGWYRQAPGKERELVAAINGSDGSTYADSVKGRFTISRDNAKNTVYLLMNSLKPEDTAVYYCAARYGSRKEYTYADMDYWGQGTQVTVSS”, the “polyreactivity (PSR sort gate)” value was “low polyreactivity”. In the case of “QVQLVESGGGLVQAGGSLRLSCAASGIIFGGYAMGWYRQAPGKERELVARITSGGSTNYADSVKGRFTISRDNAKNTVYLQMNSLKPEDTAVYYCAARSFWKWGYYYWGQGTQVTVSS”, the “polyreactivity (PSR sort gate)” value is reported as “high polyreactivity”. For “QVQLVESGGGLVQAGGSLRLSCAASGIIFGGYAMGWYRQAPGKERELVARITSGGSTNYADSVKGRFTISRDNAKNTVYLQMNSLKPEDTAVYYCNARGGWSWRFYYWGQGTQVTVSS”, the “polyreactivity (PSR sort gate)” value was “high polyreactivity”. For “QVQLVESGGGLVQAGGSLRLSCAASGIIFGGYDMGWYRQAPGKERELVAGIRSGGSTYYADSVKGRFTISRDNAKNTVYLQMNSLKPEDTAVYYCAADSYTEVDYWGQGSQVTVSS”, the “polyreactivity (PSR sort gate)” value was “low polyreactivity”. With “QVQLVESGGGLVQAGGSLRLSCAASGIIFGGYTMGWSRQAPGKERELVAAISWSGVGTYYADSVKGRFTISRDNAKNTVYLQMNSLKPEDTAVYYCAAWAYYSDDDEYWGQGTQVTVSS” the “polyreactivity (PSR sort gate)” value was “high polyreactivity”. For “QVQLVESGGGLVQAGGSLRLSCAASGIIFGHYDMGWYRQAPGKERELVAAITFTGDSTYYADSVKGRFTISRDNAKNTVYLQMNSLKPEDTAVYYCAAETPVPWGSWGYDYWGQGTQVTVSS”, the “polyreactivity (PSR sort gate)” value was “low polyreactivity”. In the case of “QVQLVESGGGLVQAGGSLRLSCAASGIIFGKNAMGWYRQAPGKERELVAAISSSGGSTYYADSVKGRFTISRDNAKNTVYLQMNSLKPEDTAVYYCATERGSRRSGSRMDYWGQGTQVTVSS”, the “polyreactivity (PSR sort gate)” value is reported as “high polyreactivity”. For “QVQLVESGGGLVQAGGSLRLSCAASGIIFGKYAMGGYRQAPGKERELVAAISSSGGRTYYADSGKGRFTISRDNAKNNVYLQMNSLKPEDTAVYYCAAVPGPGYYHYGYWGQGTQVTVSS”, the “polyreactivity (PSR sort gate)” value was “high polyreactivity”. For “QVQLVESGGGLVQAGGSLRLSCAASGIIFGQNAMGWSRQSPGKESEVVAAITISGGSTYYADSVKGRFTISRDNAKNTVYLQMNSLKPEDTAVYYCAARRVTWKVIARGYRYGYWGQGTQVTVSS”, the “polyreactivity (PSR sort gate)” value was “low polyreactivity”. With “QVQLVESGGGLVQAGGSLRLSCAASGIIFGRYAMGWYRQAPGKERELVAAISARGGSTYYADSVKGRFTISRDNAKNTVYLHMNSLKPEDTAVYYCAARAVYTQKRYDSWGQGTQVTVSS” the “polyreactivity (PSR sort gate)” value was “high polyreactivity”. With “QVQLVESGGGLVQAGGSLRLSCAASGIIFGRYAMGWYRQAPGKERELVAVISRSGGSTYYADSVKGRFTISRDNAKNTVYLQMNSLKPEDTAVYYCAARYTPTYNAGLDYWGQGTQVTVSS” the “polyreactivity (PSR sort gate)” value was “high polyreactivity”. In the case of “QVQLVESGGGLVQAGGSLRLSCAASGIIFGRYDMGWYRQAPGKERELVAAITWSGGTTYYADSVKGRFTISRDNAKNTVYLQMNSLKPADTAVYYCNAVGRYSEDGYWGQGTQVTVSS”, the “polyreactivity (PSR sort gate)” value is reported as “high polyreactivity”. In the case of “QVQLVESGGGLVQAGGSLRLSCAASGIIFGSYAMGWYRQAPGKERELVAGISKIGGRTYYADSVKGRFTISRDNAKNTVYLQMNSLKPEDTAVYYCNKVRTRERTDYDYWGQGTQVTVSS”, the “polyreactivity (PSR sort gate)” value is reported as “low polyreactivity”. In the case of “QVQLVESGGGLVQAGGSLRLSCAASGIIFGSYAMGWYRQAPGKERELVAGISRRGDSTYYADSVKGRFTISRDNAKNTVYLQMNSLNPEDTAVYYCAADRYLYFYWWPHVGGSPTYGYWGQGTQVTVSS”, the “polyreactivity (PSR sort gate)” value is reported as “high polyreactivity”. In the case of “QVQLVESGGGLVQAGGSLRLSCAASGIIFGTYVMGWYRQAPGKERELVAAINRSGGNTYYADSVKGRFTISRDNEKNTVYLQMNSLKPEDTAVYYCAAEEAYRSRRGGFDYWGQGTQVTVSS”, the “polyreactivity (PSR sort gate)” value is reported as “high polyreactivity”. For “QVQLVESGGGLVQAGGSLRLSCAASGIIFGYYAMGWYRQAPGKERELVAAINQDGSSTYYADSVKGRFTISRDNAKNTVYFQMNSLKPEDTAVYYCNARGVPRQDARMGYWGQGTQVTVSS”, the “polyreactivity (PSR sort gate)” value was “low polyreactivity”. With “QVQLVESGGGLVQAGGSLRLSCAASGIIFGYYAMGWYRQAPGKERELVAAISRRGGSTYYADSVKGRFTISRDNAKNTVYLQMNSLKPEDTAVYYCAAVELRLSTPDMESWGQGTQVTVSS” the “polyreactivity (PSR sort gate)” value was “high polyreactivity”. In the case of “QVQLVESGGGLVQAGGSLRLSCAASGIIFGYYAMGWYRQAPGKERELVAAITSGTSTYYADSVKGRFTISRDNAKNTVYLQMNSLKPEDTAVYYCNIVRRYGDEDSWGQGTQVTVSS”, the “polyreactivity (PSR sort gate)” value is reported as “high polyreactivity”. With “QVQLVESGGGLVQAGGSLRLSCAASGIIFGYYAMGWYRQAPGKERELVAGITYRTGSTYYADSVKGRFTISRDNAKNTVYLQMNFLKPEDTAVYYCAATQYKRKYSSWYYYWGQGTQVTVSS” the “polyreactivity (PSR sort gate)” value was “high polyreactivity”. In the case of “QVQLVESGGGLVQAGGSLRLSCAASGIIFHIYAMGWYRQAPGTERELVAAISTGSSTYYADSVKGRFTISRDNAKNTVYLQMNSLKPEDTAVYYCNAVSRYLWVKGFDYWGQGTQVTVSS”, the “polyreactivity (PSR sort gate)” value is reported as “low polyreactivity”. For “QVQLVESGGGLVQAGGSLRLSCAASGIIFHYYAMGWYRQAPGKEREFVASISFSGSSTYYADSVKGRFTISRDNAKNTVYLQMNSLKPEDTAVYYCAARYLYGPKYYYWGQGTQVTVSS”, the “polyreactivity (PSR sort gate)” value was “high polyreactivity”. In the case of “QVQLVESGGGLVQAGGSLRLSCAASGIIFHYYAMGWYRQAPGKERELVAAISGSGGSTYYADSVKGRFTISRDNAKNTVYLQMNSLKPEDTAVYYCAAKLWGGGGYWGQGTQVTVSS”, the “polyreactivity (PSR sort gate)” value is reported as “high polyreactivity”. In the case of “QVQLVESGGGLVQAGGSLRLSCAASGIIFHYYAMGWYRQAPGKERELVATISWDGGNTYYADSVKGRFTISRDNAKNSVYLKMNSLKPEDTAVYYCNVYDKAPAYDYWGQGTQVTVSS”, the “polyreactivity (PSR sort gate)” value is reported as “low polyreactivity”. With “QVQLVESGGGLVQAGGSLRLSCAASGIIFIFYDMGWYRQAPGKERELVATITSGTNTYADSVKGRFTISRDNAKNTVFLQMNSLKPEDTGVYYCAAGFSPASQLDYWGQGSQVTVSS” the “polyreactivity (PSR sort gate)” value was “low polyreactivity”. In the case of “QVQLVESGGGLVQAGGSLRLSCAASGIIFIKYSMGWYRQAPGKERELVAAITSGGSTHYADSVKGRFTISRDNAKNTVYLQMNSLKPEDTAVYYCYADILRHVAYFKDRYQAGSYWGQGTQVTVSS”, the “polyreactivity (PSR sort gate)” value is reported as “low polyreactivity”. In the case of “QVQLVESGGGLVQAGGSLRLSCAASGIIFIVNAMGWYRQAPGKERELVATISSSGDITRYADSVKGRFTISRDNAKYTVYLQMNSLKPEDTAVYYCAARLWTGYWGTAHPRYDYWGQGTQVTVSS”, the “polyreactivity (PSR sort gate)” value is reported as “high polyreactivity”. In the case of “QVQLVESGGGLVQAGGSLRLSCAASGIIFIYYTMGWYRQAPGTDRELVAVITTSGDGTYYADSVKGRFTISRDNAKNTGYLQMNSLKPEDTSVYYCAASYSTWVSTRNDYWGQGTQVTVSS”, the “polyreactivity (PSR sort gate)” value is reported as “low polyreactivity”.
